In PMC7813410, “Intraperitoneal insulin administration in pigs: effect on circulating insulin and glucose levels” (BMJ Open Diabetes Research & Care, 2021):
Read-outs that look alike come from different tables or passages of the source.

Key:
[1] = Description: We also performed an additional trial to investigate subcutaneous insulin dynamics and effect on blood glucose levels, performed under similar conditions. For more details, see online supplemental material section 'Additional trial'. In short, between May 2019 and January 2020, three juvenile, non-diabetic, cross-bred male pigs (50% Landswine, 50% Yorkshire) approximately 3 months of age weighing 39.5±4.3 kg were brought from the same local farmer and kept in the conditions as in the main trial.
In the additional trial, two pigs received 10 U subcutaneous insulin boluses and one pig received a 5 U subcutaneous insulin bolus. All subcutaneous insulin boluses were performed as the first bolus of the day.
Additionally, all pigs received an intraperitoneal glucagon bolus (150 µg) 40 min after the insulin bolus.
(§1) In the main trial, all pigs (n=7) received three insulin boluses (2, 5 and 10 U) in the upper right intraperitoneal space. In the additional trial, insulin boluses were injected into the subcutaneous tissues in the left side of the neck. Two pigs received 10 U boluses and one pig received a 5 U bolus.
(§2) In both trials, blood samples for insulin analysis were stored on ice for at least 10 min before centrifugation (10 min at 2.000× rpm in a refrigerated centrifuge). Plasma was collected from the samples immediately after centrifugation and transferred into empty Eppendorf Tubes and temporarily stored at −20°C. At the end of each trial day, plasma samples were stored at −80°C.
(§3) Plasma insulin was analyzed as singles by Iso-Insulin ELISA kit (10-1128-01, Mercodia, Uppsala, Sweden). Suppression of endogenous insulin secretion was verified by analyses of Porcine Insulin ELISA (10-1200-01, Mercodia) according to the manufacturer’s protocol. The results were converted from mU/L to pmol/L by a conversion factor 6, as recommended by the manufacturer. The lowest detectable insulin concentration for the Iso-Insulin ELISA kit was <3.0 mU/L (18 pmol/L) and for Porcine Insulin ELISA was <2.3 mU/L (13.8 pmol/L).

[2] = system: pigs; test: Blood glucose after intraperitoneal insulin boluses in anesthetized pigs; assay type: in vivo, pig; conditions: mean±SE
Procedure: In every stall, a heating lamp was provided.
(§4) The somatostatin analogs were injected 1 hour before the first insulin bolus of the day. 0.4 mg octreotide was injected intravenously and 0.3 mg pasireotide was injected subcutaneously. The octreotide injections were repeated hourly and the pasireotide injections were repeated every 3 hours during the trial.
To prevent hypoglycemia, a continuous venous glucose infusion was provided through the left internal jugular vein and was continued for the duration of the experiment. The blood glucose levels were kept in the range of 4.5–5.5 mmol/L before each insulin bolus was given.
In the first pig, we tested different glucose infusion rates to identify a suitable rate. In the remaining seven pigs, a constant glucose infusion rate of 8 g/hour was used throughout the experiments.
For both trials, arterial blood samples for glucose analysis were collected in heparinized syringes (LEO Pharma). Samples were analyzed on a Radiometer ABL 725 blood gas analyzer (Radiometer Medical, Brønshøj, Denmark). All blood samples were placed on ice immediately after extraction from the pigs. Most samples were analyzed consecutively, but some samples were stored on ice for a maximum of 20 min before analysis.
In the main trial, samples were collected 10, 5 and 1 min prior to the first somatostatin analog injection, every 10 min for the first hour after Sandostatin injection, every minute for the first 10 min after the insulin bolus, and every fifth minute thereafter for the next 110 min.
From the main trial, data from the last seven pigs were used for statistical analysis. We assumed the glucose levels at −5 min to be the baseline glucose levels at the start before each bolus (online supplemental figure S1).
Treatment and time were the sources of variation. […] Statistics were performed with GraphPad Prism V.8 Statistics.

[3] = in vitro model; cited from earlier work
Description: The liver is the major organ involved in glucose homeostasis.

[4] = remark: listed apart in the source
Description: Between January 2017 and August 2018, eight juvenile, non-diabetic, cross-bred pigs (50% Landswine, 50% Yorkshire) approximately 3 months of age (one male (36.2 kg) and seven females (39.5±2.7 kg)) were brought from the same local farmer approximately 1 week before the trials and acclimatized to the staff and new environment. Whenever possible, the pigs were kept in groups in a common stall (11.2 m^2) with concrete floor covered with woodchips. In every stall, a heating lamp was provided. In the facility, a day-night photoperiod (night: 21:00–05:00, dawn: 05:00–07:00, day: 07:00–19:00, dusk: 19:00–21:00) was maintained at 22°C and a relative humidity of 45%±5%. The pigs were fed standard food (Format Vekst 100, Felleskjøpet, Norway) and fresh water was available ad libitum. Food was removed 17 hours before the start of the trial while water was available until anesthesia was initiated.
In the main trial, the first pig was used to obtain information about optimal infusion rate of glucose to maintain stable glucose levels throughout the trial days. The second pig was used to confirm the chosen infusion rate. The remaining six pigs were used to study the pharmacokinetics and pharmacodynamics of intraperitoneally delivered insulin boluses. However, all pigs received boluses of 2, 5 and 10 U of insulin (1 U/s) in the upper right quadrant of the intraperitoneal cavity. The order of insulin boluses for the first two pigs was 2, 5 and 10 U. The order of boluses for the last six pigs was randomized.[6] There were at least 2 hours and 30 min between each bolus.
At the start of every trial day, a fresh insulin analog (100 U/mL, NovoRapid, Novo Nordisk, Denmark) was inserted in an insulin pump (Animas Vibe).
as §1, §2, §3
Delta values collected from the main trial with different insulin boluses (2, 5 and 10 U) in the pigs were analyzed. In order to estimate possible significant differences in circulating insulin and blood glucose levels after IP insulin boluses, a two-way repeated measures analysis of variance was performed. Treatment and time were the sources of variation. Tukey’s multiple comparisons test was used for distinguishing comparisons between different insulin boluses. All non-measurable insulin values were set at 18 pmol/L. All treatments are compared as models; therefore, comparison between unequal groups is allowed. Statistics were performed with GraphPad Prism V.8 Statistics. All values are given as mean±SD, unless stated otherwise. Differences between the groups were considered significant if p≤0.05.

[5] = system: endogenous insulin secretion; test: Suppression of endogenous insulin secretion by somatostatin analogs (Porcine Insulin ELISA); assay type: in vivo, pig; conditions: octreotide 0.4 mg IV hourly together with pasireotide 0.3 mg SC every 3 hours, pigs, no detectable levels
Procedure: To suppress the endogenous insulin and glucagon secretion, all pigs received the somatostatin analogs octreotide (Sandostatin 200 µg/mL, Novartis Europharm, UK) and pasireotide (Signifor 0.3 mg/mL, Novartis Europharm).
as §4

[6] = 5 U subcutaneous bolus, n=1 pig
[7] = 10 U subcutaneous boluses, n=2 pigs

Row | Substance | time after bolus at which insulin level was increased [1, 6] [min] | time at which insulin levels were still elevated [1, 6] [min] | time after boluses at which mean insulin level was increased [1, 7] [min] | time at which insulin levels were still elevated [1, 7] [min] | mean circulating insulin level after subcutaneous compared with intraperitoneal insulin boluses ([1]; subcutaneous (5 U n=1, 10 U n=2) vs IP boluses (n=7), p value not calculated) | decrease of estimated mean blood glucose level after 5 U compared with 2 U intraperitoneal insulin boluses ([2]; 5 U vs 2 U IP bolus, anesthetized non-diabetic pigs, n=7, 120 min after bolus, glucose infusion 8 g/hour, 95% CI 0.31 to 0.65, p<0.0001) [mmol/L] | decrease of estimated mean blood glucose level after 10 U compared with 2 U intraperitoneal insulin boluses ([2]; 10 U vs 2 U IP bolus, anesthetized non-diabetic pigs, n=7, 120 min after bolus, glucose infusion 8 g/hour, 95% CI 0.44 to 0.79, p<0.0001) [mmol/L] | change of mean blood glucose level after 10 U compared with 5 U intraperitoneal insulin boluses ([2]; 10 U vs 5 U IP bolus, n=7 pigs, 95% CI −0.04 to 0.30, p=0.184, not different) [mmol/L] | hepatic first-pass effect [3] | effect on mean circulating insulin level ([4]; 2 U IP bolus, n=7 pigs) | effect on mean circulating insulin level ([4]; 5 U IP bolus, n=7 pigs) | mean circulating insulin levels after 5 U compared with 2 U intraperitoneal insulin boluses ([4]; 5 U vs 2 U IP bolus, n=7 pigs, p=0.89) | time after which mean circulating insulin level was close to baseline ([4]; 10 U IP bolus, n=7 pigs) [min] | time after which mean insulin level started to increase ([4]; 10 U IP bolus, n=7 pigs) [min] | increase of mean circulating insulin level after 10 U compared with 2 U intraperitoneal insulin boluses ([4]; 10 U vs 2 U IP bolus, n=7 pigs, plasma, Iso-Insulin ELISA, mean±SE, 95% CI 1.99 to 5.37, p<0.0001) [pmol/L] | increase of mean circulating insulin level after 10 U compared with 5 U intraperitoneal insulin boluses ([4]; 10 U vs 5 U IP bolus, n=7 pigs, plasma, Iso-Insulin ELISA, mean±SE, 95% CI 5.86 to 10.89, p<0.0001) [pmol/L] | first-pass effect in the liver ([4]; after the smaller (2 and 5 U) IP insulin boluses, inferred from circulating insulin levels in pigs) [%] | endogenous insulin levels during the experiments [5] [pmol/L]
1 | insulin: fresh insulin analog (100 U/mL, NovoRapid, Novo Nordisk, Denmark) delivered by insulin pump | 5 | 140 | 5 | 140 | increased more | 0.48 ± 0.07 | 0.61 ± 0.07 | 0.13 ± 0.07 | up to 80% | did not increase | did not increase | not different | 80 | 10 | 7.89 ± 1.07 | 8.37 ± 1.07 | ~100 | –
2 | octreotide | – | – | – | – | – | – | – | – | – | – | – | – | – | – | – | – | – | < 13.8
3 | pasireotide | – | – | – | – | – | – | – | – | – | – | – | – | – | – | – | – | – | < 13.8
